Here are results for 21 variants from the RNAGym collection of RNA variant scans (doi:10.1073/pnas.2313332121).

The labels stand for the following.
B1: TPR t1 (parent)
chain: GACCAAUCUGCCCUCAGAGCUCGAGAACAUCUUCGGAUGCAGAGGAGGCAGGCUUCGGUGGCGCGAUAGCGCCAACGUCCUCAACCUCCAAUGCAUCCCACCACAUGAUGAUGCCUGAAGAGCCUUGGUUUUUUG

Variants of B1 are the subject of the series. The series is described as follows: polymerase ribozyme fitness, log enrichment relative to wild type (log ratio); higher = more active; in vitro selection for triplet polymerase activity. The essentials: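 Frozen incubation at −7 °C formed the core of a single, triplicate in vitro selection round applied to PCR-built, transcribed mutant libraries of each subunit of a heterodimeric triplet polymerase ribozyme. Extended constructs were gel-excised, captured with streptavidin beads and amplified by RT-PCR, and input and output libraries were Illumina-sequenced with a filter of ≥10 input reads and ≥1 read per output. Fitness is the logarithm of genotype enrichment relative to wild-type enrichment, with inverse-variance-weighted replicate averaging, and the logarithm is base 2.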
For GACCAAUCUGCCCUCAGAGCUCGAGAACAUCUUCGGAUGCAGAGGAGGCAGGCUUCGGUGGCGCGAUAGCGACAACGUCCUCAACCUCCUAUGCAUCCCAACACAUGAUGAUGCCUGAAGAACCUUGGUUUUUUG [C72A A90U C101A G122A], the “polymerase ribozyme fitness (log ratio)” value is -3.86.

As for GACCAAUCUGCCCUCAGAGCUCGAGAACAUCUUCGGAUGCAGAGGAGGCAGGCUUCGGUGGCGCGAUAGCGACAACGUCCUCAACCUCCAAUCCAUCCCACAACAAGAUAAUGCCUGAAGAGCCAUAGUUUUUUG [C72A G93C C102A U106A G110A U125A G127A], the “polymerase ribozyme fitness (log ratio)” value was -6.51.

Turning to GACCAAUCUGCCCUCAGAGCUCGAGAACAUCUUCGGAUGCAGAGGAGGCAGGCUUCGGUGGCGCGAUAGCGACAACGUCCUCAACCUCCAAUGCAUCCCACCACAUGUUGAUGCCUGAAGAGCCUUGGUUUUUUG [C72A A108U], the “polymerase ribozyme fitness (log ratio)” value is -5.64.

Take GACCAAUCUGCCCUCAGAGCUCGAGAACAUCUUCGGAUGCAGAGGAGGCAGGCUUCGGUGGCGCGAUAGCGACAACGUACUCAACCUCCAAUGAAUCCCACCACAUGAUGAUGCCUGAAGAGCCUUCGUUUUUUG [C72A C79A C94A G127C]: the “polymerase ribozyme fitness (log ratio)” value is -2.85.

Consider GACCAAUCUGCCCUCAGAGCUCGAGAACAUCUUCGGAUGCAGAGGAGGCAGGCUUCGGUGGCGCGAUAGCGACAACGUCCUUAACCUCCAAUGCAUCCCACCACAUGAUGAUGCCUGAAGAGCCUUGGUUUUUUG [C72A C82U], for which the “polymerase ribozyme fitness (log ratio)” value amounted to 0.305.

Turning to GACCAAUCUGCCCUCAGAGCUCGAGAACAUCUUCGGAUGCAGAGGAGGCAGGCUUCGGUGGCGCGAUAGCGACAACGUCCUAAACCUCCAAUGCAUCCCACCACAUGAUGAUGCCUGAAGAGCCUUGGUUUUUUG [C72A C82A], the “polymerase ribozyme fitness (log ratio)” value is 0.281.

As to GACCAAUCUGCCCUCAGAGCUCGAGAACAUCUUCGGAUGCAGAGGAGGCAGGCUUCGGUGGCGCGAUAGCUCCAACGUCCUCAACCUCCAAUGCAUCCCACCACAUGAUGAUGCCUGAAGAGCCUUGGAUUUUUG [G71U U129A], the “polymerase ribozyme fitness (log ratio)” value is -1.8.

Regarding GACCAAUCUGCCCUCAGAGCUCGAGAACAUCUUCGGAUGCAGAGGAGGCAGGCUUCGGUGGCGCGAUAGCUCCAACGUCCUCAACCUCCAAUGCAUCCCACCACAUGAUGAUGCCUGAAGAGCCUUGGCUUUUUG [G71U U129C], the “polymerase ribozyme fitness (log ratio)” value was -0.505.

As for GACCAAUCUGCCCUCAGAGCUCGAGAACAUCUUCGGAUGCAGAGGAGGCAGGCUUCGGUGGCGCGAUAGCGACAACGUCCUCAACCUCCAAUGCAUCCCACCACAUGAUAAUGCAUGAAGAGCCUUGGUUUUUUG [C72A G110A C115A], the “polymerase ribozyme fitness (log ratio)” value is -2.51.

As to GACCAAUCUGCCCUCAGAGCUCGAGAACAUCUUCGGAUGCAGAGGAGGCAGGCUUCGGUGGCGCGAUAGCGACAACGUCCUGAACCUCCACUCCAUCCCACCACAUGAUGAUGCCUGAAGAGCCUUGGUUUUUUG [C72A C82G A91C G93C], the “polymerase ribozyme fitness (log ratio)” value was -3.15.

As to GACCAAUCUGCCCUCAGAGCUCGAGAACAUCUUCGGAUGCAGAGGAGGCAGGCUUCGGUGGCGCGAUAGCGACAACGUCCUCAACCUCCAAUGCAUCCCAACACAUGAUGAUGCCUGAAGAGCCUUGGUUUUUUG [C72A C101A], the “polymerase ribozyme fitness (log ratio)” value is -1.15.

Take GACCAAUCUGCCCUCAGAGCUCGAGAACAUCUUCGGAUGCAGAGGAGGCAGGCUUCGGUGGCGCGAUAGCGACACCGUCCUCAACCGCCAAUGCAUCCCACAACAUGAUGAUGCCAGAAGAGCUUUGGUAUUUUG [C72A A75C U87G C102A U116A C124U U130A]: the “polymerase ribozyme fitness (log ratio)” value is -5.54.

In the case of GACCAAUCUGCCCUCAGAGCUCGAGAACAUCUUCGGAUGCAGAGGAGGCAGGCUUCGGUGGCGCGAUAGCGACAACGUCCUCAACCUCCAAUGCAUCCCACCACAUGAUGAUGGCUGAAGAGCCUUGGUUUUUUG [C72A C114G], the “polymerase ribozyme fitness (log ratio)” value is -2.31.

For the variant GACCAAUCUGCCCUCAGAGCUCGAGAACAUCUUCGGAUGCAGAGGAGGCAGGCUUCGGUGGCGCGAUAGCGACAACGUCCUCAACCUCCAAUGCAUCCCACCACAUAAUGAUGCCUGAAGAGCGUUGGUUUUUUG [C72A G107A C124G], the “polymerase ribozyme fitness (log ratio)” value is -5.06.

For the variant GACCAAUCUGCCCUCAGAGCUCGAGAACAUCUUCGGAUGCAGAGGAGGCAGGCUUCGGUGGCGCGAUAGCUCCAACGUCCUCAACCUCCAAUGCAUCCCACCACAUGAUGAUGCCCGAAGAGCCUUGGUUUUUUG [G71U U116C], the “polymerase ribozyme fitness (log ratio)” value is -0.726.

As to GACCAAUCUGCCCUCAGAGCUCGAGAACAUCUUCGGAUGCAGAGGAGGCAGGCUUCGGUGGCGCGAUAGCGACAACGCCCUCAACCUCCAAUGCAUCCCACCACAUGAUGAUGCCUGAAGAGCCUUGGUUUUUUG [C72A U78C], the “polymerase ribozyme fitness (log ratio)” value was -0.145.

Regarding GACCAAUCUGCCCUCAGAGCUCGAGAACAUCUUCGGAUGCAGAGGAGGCAGGCUUCGGUGGCGCGAUAGCGACAACGACCUCAACCUCCAAUGCAUCCCACCACAUGAUGAUGCCUGAAGAGCCUUGGUUUUUUG [C72A U78A], the “polymerase ribozyme fitness (log ratio)” value worked out at 0.142.

In the case of GACCAAUCUGCCCUCAGAGCUCGAGAACAUCUUCGGAUGCAGAGGAGGCAGGCUUCGGUGGCGCGAUAGCGACAACGUCCUCAACCUCCAAUGCAUCCUACCACAUGAGGAUGCCUGAAGAGCCUUGGUUUUUUG [C72A C99U U109G], the “polymerase ribozyme fitness (log ratio)” value is -6.16.

For GACCAAUCUGCCCUCAGAGCUCGAGAACAUCUUCGGAUGCAGAGGAGGCAGGCUUCGGUGGCGCGAUAGCUCCAACGUCCUCAACCUCCAAUGCAUCCCACCACAUGAUGAUGCCUGAAGAGCCUUGGUAUUUUG [G71U U130A], the “polymerase ribozyme fitness (log ratio)” value is 0.232.

GACCAAUCUGCCCUCAGAGCUCGAGAACAUCUUCGGAUGCAGAGGAGGCAGGCUUCGGUGGCGCGAUAGCGACAACGUCCUCAACCUCCAAAGCAUCCCACCACAUGAUGAUGCCUGAGGAGCCUUCGUUUUUUG [C72A U92A A119G G127C]: the “polymerase ribozyme fitness (log ratio)” value was -1.04.

As to GACCAAUCUGCCCUCAGAGCUCGAGAACAUCUUCGGAUGCAGAGGAGGCAGGCUUCGGUGGCGCGAUAGCGACAACGUCCUCAACCUCCAAUGCAUCCCACCACAUUAUGAUGCCUGAAGAGCCUUGGUUUUUUG [C72A G107U], the “polymerase ribozyme fitness (log ratio)” value is -3.81.
